# Laboratory results as given in patent US20210388110A1 (published 2021).
# Biological target: T1, soluble human GPC3 (human, UniProt P51654 25-563, limits assumed)
# T1 construct: soluble human GPC3 as analyte; also called glypican 3
# Assay: SPR (Biacore), soluble human GPC3
# T1 sequence (P51654 other isoform, or with tags, fused parts or gaps limits assumed, form in doubt): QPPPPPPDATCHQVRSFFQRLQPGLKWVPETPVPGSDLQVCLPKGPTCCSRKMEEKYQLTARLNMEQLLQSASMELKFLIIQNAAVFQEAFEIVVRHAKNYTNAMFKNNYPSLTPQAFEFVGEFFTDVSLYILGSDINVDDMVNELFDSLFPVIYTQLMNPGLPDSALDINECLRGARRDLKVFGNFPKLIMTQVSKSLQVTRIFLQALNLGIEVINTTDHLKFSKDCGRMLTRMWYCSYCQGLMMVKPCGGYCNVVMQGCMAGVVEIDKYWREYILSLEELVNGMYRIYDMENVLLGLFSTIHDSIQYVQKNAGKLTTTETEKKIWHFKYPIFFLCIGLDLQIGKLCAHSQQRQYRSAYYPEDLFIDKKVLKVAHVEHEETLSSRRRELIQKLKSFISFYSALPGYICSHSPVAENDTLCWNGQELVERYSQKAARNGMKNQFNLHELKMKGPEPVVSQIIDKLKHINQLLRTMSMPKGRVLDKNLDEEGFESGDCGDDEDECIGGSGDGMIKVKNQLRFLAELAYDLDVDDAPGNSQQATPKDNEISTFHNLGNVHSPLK
row,Binder,Kd [nM]
1,"H0610-G1dh/none-Hi-Kn010G3/L0237-k0 (antibody, human IgG1, kappa, single-arm (one Fab)) heavy: not shown EPKSSDKTHTCPPCPAPELLGGPSVFLFPPKPKDTLMISRTPEVTCVVVDVSHEDPEVKFNWYVDGVEVHNAKTKPREEQYNSTYRVVSVLTVLHQDWLNGKEYKCKVSNKALPAPIEKTISKAKGQPREPQVCTLPPSRDELTKNQVSLWCLVKGFYPSDIAVEWESNGQPENNYKTTPPVLDSDGSFFLYSKLTVDKSRWQQGNVFSCSVMHEALHNRYTQKSLSLSP light: DIVMTQSPLSLPVTPGEPASISCRSSQEPVHSNRNTYIHWYQQKPGQAPRLLIYKVSNRFSGVPDRFSGSGSGTDFTLKISRVEAEDVGVYYCYQGTQVPYTFGQGTKLEIKRTVAAPSVFIFPPSDEQLKSGTASVVCLLNNFYPREAKVQWKVDNALQSGNSQESVTEQDSKDSTYSLSSTLTLSKADYEKHKVYACEVTHQGLSSPVTKSFNRGEC",1.31
2,"H0610-G1dh/none-Hi-Kn010G3/L0240-k0 (antibody, human IgG1, kappa, single-arm (one Fab)) heavy: not shown EPKSSDKTHTCPPCPAPELLGGPSVFLFPPKPKDTLMISRTPEVTCVVVDVSHEDPEVKFNWYVDGVEVHNAKTKPREEQYNSTYRVVSVLTVLHQDWLNGKEYKCKVSNKALPAPIEKTISKAKGQPREPQVCTLPPSRDELTKNQVSLWCLVKGFYPSDIAVEWESNGQPENNYKTTPPVLDSDGSFFLYSKLTVDKSRWQQGNVFSCSVMHEALHNRYTQKSLSLSP light: DIVMTQSPLSLPVTPGEPASISCRSSESPVHSNRNTYLHWYQQKPGQAPRLLIYKVSNRFSGVPDRFSGSGSGTDFTLKISRVEAEDVGVYYCYQGTQVPYTFGQGTKLEIKRTVAAPSVFIFPPSDEQLKSGTASVVCLLNNFYPREAKVQWKVDNALQSGNSQESVTEQDSKDSTYSLSSTLTLSKADYEKHKVYACEVTHQGLSSPVTKSFNRGEC",0.848
3,"H0610-G1dh/none-Hi-Kn010G3/L0238-k0 (antibody, human IgG1, kappa, single-arm (one Fab)) heavy: not shown EPKSSDKTHTCPPCPAPELLGGPSVFLFPPKPKDTLMISRTPEVTCVVVDVSHEDPEVKFNWYVDGVEVHNAKTKPREEQYNSTYRVVSVLTVLHQDWLNGKEYKCKVSNKALPAPIEKTISKAKGQPREPQVCTLPPSRDELTKNQVSLWCLVKGFYPSDIAVEWESNGQPENNYKTTPPVLDSDGSFFLYSKLTVDKSRWQQGNVFSCSVMHEALHNRYTQKSLSLSP light: DIVMTQSPLSLPVTPGEPASISCRSSEPPVHSNRNTYLHWYQQKPGQAPRLLIYKVSNRFSGVPDRFSGSGSGTDFTLKISRVEAEDVGVYYCYQGTQVPYTFGQGTKLEIKRTVAAPSVFIFPPSDEQLKSGTASVVCLLNNFYPREAKVQWKVDNALQSGNSQESVTEQDSKDSTYSLSSTLTLSKADYEKHKVYACEVTHQGLSSPVTKSFNRGEC",0.637
4,"H0610-G1dh/none-Hi-Kn010G3/L0239-k0 (antibody, human IgG1, kappa, single-arm (one Fab)) heavy: not shown EPKSSDKTHTCPPCPAPELLGGPSVFLFPPKPKDTLMISRTPEVTCVVVDVSHEDPEVKFNWYVDGVEVHNAKTKPREEQYNSTYRVVSVLTVLHQDWLNGKEYKCKVSNKALPAPIEKTISKAKGQPREPQVCTLPPSRDELTKNQVSLWCLVKGFYPSDIAVEWESNGQPENNYKTTPPVLDSDGSFFLYSKLTVDKSRWQQGNVFSCSVMHEALHNRYTQKSLSLSP light: DIVMTQSPLSLPVTPGEPASISCRSSESPVHSNRNTYLHWYQQKPGQAPRLLIYKVSNRFRGVPDRFSGSGSGTDFTLKISRVEAEDVGVYYCGQGTQVPYTFGQGTKLEIKRTVAAPSVFIFPPSDEQLKSGTASVVCLLNNFYPREAKVQWKVDNALQSGNSQESVTEQDSKDSTYSLSSTLTLSKADYEKHKVYACEVTHQGLSSPVTKSFNRGEC",0.874
5,"H0610-G1dh/none-Hi-Kn010G3/L0242-k0 (antibody, human IgG1, kappa, single-arm (one Fab)) heavy: not shown EPKSSDKTHTCPPCPAPELLGGPSVFLFPPKPKDTLMISRTPEVTCVVVDVSHEDPEVKFNWYVDGVEVHNAKTKPREEQYNSTYRVVSVLTVLHQDWLNGKEYKCKVSNKALPAPIEKTISKAKGQPREPQVCTLPPSRDELTKNQVSLWCLVKGFYPSDIAVEWESNGQPENNYKTTPPVLDSDGSFFLYSKLTVDKSRWQQGNVFSCSVMHEALHNRYTQKSLSLSP light: DIVMTQSPLSLPVTPGEPASISCRSSESPVHSNRNTYIHWYQQKPGQAPRLLIYKVSNRFSGVPDRFSGSGSGTDFTLKISRVEAEDVGVYYCYQGTQVPYTFGQGTKLEIKRTVAAPSVFIFPPSDEQLKSGTASVVCLLNNFYPREAKVQWKVDNALQSGNSQESVTEQDSKDSTYSLSSTLTLSKADYEKHKVYACEVTHQGLSSPVTKSFNRGEC",1.19
